EP4545563A1 (Foreseen Technology (Beijing) Co., Ltd., dated 2024)
Residue numbers refer to the chain shown, from its start.

T1: ITGA2 protein on the surface of human tumor cells (HuCCT1, A431) (human, UniProt P17301 30-1181)
T1 construct: whole, on cells; Endogenously expressed on the cell lines; the cell line of each entry is named under assay or readout; also called Integrin alpha-2; ITGA2-positive HuCCT1 cells
T1 sequence (looked up): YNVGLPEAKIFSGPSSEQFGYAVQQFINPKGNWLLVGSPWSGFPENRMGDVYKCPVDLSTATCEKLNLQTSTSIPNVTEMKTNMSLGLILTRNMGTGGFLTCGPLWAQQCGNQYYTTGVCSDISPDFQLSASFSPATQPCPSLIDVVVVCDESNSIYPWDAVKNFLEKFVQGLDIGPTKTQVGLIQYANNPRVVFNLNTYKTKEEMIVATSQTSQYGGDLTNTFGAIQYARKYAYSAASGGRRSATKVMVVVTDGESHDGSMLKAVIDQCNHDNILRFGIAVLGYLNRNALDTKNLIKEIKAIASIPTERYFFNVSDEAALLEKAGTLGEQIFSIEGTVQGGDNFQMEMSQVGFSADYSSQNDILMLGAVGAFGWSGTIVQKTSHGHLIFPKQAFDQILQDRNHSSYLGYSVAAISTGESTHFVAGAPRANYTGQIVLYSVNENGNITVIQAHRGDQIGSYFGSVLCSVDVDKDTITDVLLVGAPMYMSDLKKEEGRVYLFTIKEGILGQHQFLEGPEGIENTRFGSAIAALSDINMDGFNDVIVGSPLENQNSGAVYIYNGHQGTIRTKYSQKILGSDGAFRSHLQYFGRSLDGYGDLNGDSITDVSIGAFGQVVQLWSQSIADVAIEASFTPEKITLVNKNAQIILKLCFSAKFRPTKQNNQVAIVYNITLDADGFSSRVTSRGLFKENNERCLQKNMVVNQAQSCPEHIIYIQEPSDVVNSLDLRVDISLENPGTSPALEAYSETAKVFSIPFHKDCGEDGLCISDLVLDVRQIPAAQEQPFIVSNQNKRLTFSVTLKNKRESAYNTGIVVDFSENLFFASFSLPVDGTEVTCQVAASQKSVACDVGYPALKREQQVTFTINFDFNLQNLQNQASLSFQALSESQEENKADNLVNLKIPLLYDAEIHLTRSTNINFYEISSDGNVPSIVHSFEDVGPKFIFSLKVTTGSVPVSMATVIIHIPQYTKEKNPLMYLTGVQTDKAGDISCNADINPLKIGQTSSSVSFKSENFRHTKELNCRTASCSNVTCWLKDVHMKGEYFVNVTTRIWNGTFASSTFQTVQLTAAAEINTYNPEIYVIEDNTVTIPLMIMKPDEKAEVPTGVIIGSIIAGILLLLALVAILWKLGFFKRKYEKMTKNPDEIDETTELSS

T2: ITGA2-His (human, UniProt P17301 30-1132, limits assumed)
T2 construct: also called ITGA2 protein; not shown: His tag
T2 sequence (looked up): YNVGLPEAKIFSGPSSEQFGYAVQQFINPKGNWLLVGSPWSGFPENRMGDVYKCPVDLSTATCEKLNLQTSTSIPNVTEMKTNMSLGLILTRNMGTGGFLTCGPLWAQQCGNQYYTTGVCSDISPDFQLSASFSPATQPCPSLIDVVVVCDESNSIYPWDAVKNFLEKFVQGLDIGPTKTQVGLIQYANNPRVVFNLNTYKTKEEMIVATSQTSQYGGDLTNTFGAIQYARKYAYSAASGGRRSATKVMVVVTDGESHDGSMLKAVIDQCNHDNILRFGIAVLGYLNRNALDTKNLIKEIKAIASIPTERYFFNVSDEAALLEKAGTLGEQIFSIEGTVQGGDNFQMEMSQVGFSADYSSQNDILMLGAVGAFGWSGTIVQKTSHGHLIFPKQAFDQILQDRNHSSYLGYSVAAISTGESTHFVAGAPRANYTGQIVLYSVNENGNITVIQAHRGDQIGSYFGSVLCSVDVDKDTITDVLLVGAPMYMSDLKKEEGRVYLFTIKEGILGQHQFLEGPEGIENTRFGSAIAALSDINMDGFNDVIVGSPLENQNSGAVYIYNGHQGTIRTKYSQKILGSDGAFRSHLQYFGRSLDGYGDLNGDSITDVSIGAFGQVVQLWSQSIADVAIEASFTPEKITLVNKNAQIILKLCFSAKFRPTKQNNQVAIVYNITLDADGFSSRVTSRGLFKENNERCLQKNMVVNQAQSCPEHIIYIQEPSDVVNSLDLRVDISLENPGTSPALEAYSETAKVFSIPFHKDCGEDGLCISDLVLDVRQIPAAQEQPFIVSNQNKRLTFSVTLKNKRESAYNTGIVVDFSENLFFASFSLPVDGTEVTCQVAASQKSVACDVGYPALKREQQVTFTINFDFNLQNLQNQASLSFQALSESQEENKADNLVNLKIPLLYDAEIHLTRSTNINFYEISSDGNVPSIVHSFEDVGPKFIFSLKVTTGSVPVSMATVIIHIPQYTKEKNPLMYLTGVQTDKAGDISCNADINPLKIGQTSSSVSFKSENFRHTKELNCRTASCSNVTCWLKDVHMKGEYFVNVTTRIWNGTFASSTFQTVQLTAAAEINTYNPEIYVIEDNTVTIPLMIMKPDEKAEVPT

B1: Humanized antibody FS002-C330 (antibody, V domains shown)
VH: QLQLQESGPGLVKPSGTLSLTCAVSGGSISSSNWWSWVRQPPGKGLEWIGEIYHSGSTNYNPSLKSRVTISVDKSKNQFSLKLSSVTAADTAVYYCARAHSRYYYGLDYWGQGTLVTVSS
VL: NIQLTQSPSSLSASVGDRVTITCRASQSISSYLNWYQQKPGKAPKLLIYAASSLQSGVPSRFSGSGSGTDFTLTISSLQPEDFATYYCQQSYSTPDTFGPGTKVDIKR
notes: IgG1 heavy chain, kappa light chain
B2: Humanized antibody FS002-A15 (antibody, human IgG1, kappa, V domains shown)
VH: RLQLQESGPGLVKPSQTLSLTCTVSGGSISSGGYYWSWIRQHPGKGLEWIGYIYYSGSTYYNPSLKSRVTISVDTSKNQFSLKLSSVTAADTAVYYCARATIYGYFDYWGQGTLVTVSS
VL: EIVLTQSPATLPLSPGERATLSCRASQSVGFYLAWYQQKPGQPPRLLFYDASKRATGIPARFSASGSGTDFTLTISGLEPEDFAVYYCQHRISWPLTFGQGTKVEVKR
notes: as for B1
B3: Vatelizumab (antibody, V domains shown)
VH: QVQLQESGPGLVKPSETLSLTCTVSGFSLTNYGIHWIRQPPGKGLEWLGVIWARGFTNYNSALMSRLTISKDNSKNQVSLKLSSVTAADTAVYYCARANDGVYYAMDYWGQGTLVTVSS
VL: DFVMTQSPAFLSVTPGEKVTITCSAQSSVNYIHWYQQKPDQAPKKLIYDTSKLASGVPSRFSGSGSGTDYTFTISSLEAEDAATYYCQQWTTNPLTFGQGTKVEIK
B4: Humanized antibody FS002-A1 (antibody, V domains shown)
VH: QVQLVQSGAEVKKPGASVKVSCKASGYTFTSYYMHWVRQAPGQGLEWMGIINPSGGSTSYAQKFQGRVTMTRDTSTSTVYMELSSLRSEDTAVYYCARDISGSYQTDAFDIWGQGTMVTVSS
VL: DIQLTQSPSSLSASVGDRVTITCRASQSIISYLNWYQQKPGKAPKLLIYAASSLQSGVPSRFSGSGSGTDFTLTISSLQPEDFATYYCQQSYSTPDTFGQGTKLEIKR
notes: IgG1 heavy chain, kappa light chain; expressed in ExpiCHO-s cells, Protein A purified
B5: Humanized antibody FS002-A10 (antibody, human IgG1, kappa, V domains shown)
VH: QVQLQQSGPGLVKPSQTLSLTCAISGDSVSSDSAAWNWIRQSPSRGLEWLGRTYYRSKWYNDYAVSVKSRITINPDTSKNQFSLQLNSVTSDDTAVYYCARGSWAAPWLWGQGTLVTVSS
VL: NIQLTQSPPFLSASVGDRVTITCRASQDISSFLAWYQQKPGKAPNLLIHAATTLQSGVPSRFSGSGSGTEFTLTISSLRPEDFATYYCQQLHTYPITFGQGTRLEIKR
notes: as for B1
B6: Humanized antibody FS002-C9 (antibody, human IgG1, kappa, V domains shown)
VH: QVQLLESGPGLVKPSQTVSLTCTVSGVSISRGVYSWSWIRQHPGKGLEWIGFIDYNGRTDYNPSLKSRVTISQDTSKNDFSLKLTSVTAADTAIYYCARGLHAFDIWGQGTMVTVSS
VL: NIQMTQSPPSLSASVGDRVAITCRASQDISNSLAWYQQKSGQPPKLLLYDVSKLERGVPSRFSGSGSRTDYTLTISSLQPEDFATYYCQQYSSDPTFGQGSKLEFKR
notes: as for B1
B7: Humanized antibody FS002-C216 (antibody, human IgG1, kappa, V domains shown)
VH: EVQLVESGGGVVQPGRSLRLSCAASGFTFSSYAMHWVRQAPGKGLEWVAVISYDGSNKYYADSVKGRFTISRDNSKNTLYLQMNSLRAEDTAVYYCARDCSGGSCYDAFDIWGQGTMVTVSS
VL: EIVLTQSPATLSLSPGERATLSCRASQSVSSYLAWYQQKPGQAPRLLIYDASNRATGIPARFSGSGSGTDFTLTISSLEPEDFAVYYCQQRTNWLMYTFGQGTKLEIKR
notes: as for B1
B8: Humanized antibody FS002-C375 (antibody, human IgG1, kappa, V domains shown)
VH: QVQLQESGPGLVKPSQTLSLTCTVSGGSISSGGYYWSWIRQHPGKGLEWIGYIYYSGSTYYNPSLKSRVTISVDTSKNQFSLKLSSVTAADTAVYYCARVGVALHYGMDVWGQGTTVTVSS
VL: EIVLTQSPATLSLSPGERATLSCRASQSVSSYLAWYQQKPGQAPRLLIYDASNRATGIPARFSGSGSGTDFTLTISSLEPEDFAVYYCQQRSNWPLTFGGGTKVEIKR
notes: as for B1
B9: Humanized antibody FS002-A36 (antibody, human IgG1, kappa, V domains shown)
VH: QVQLQESGPGLVKPSQTLSLTCTVSGGSISSGGYYWSWIRQHPGKGLEWIGYIYYSGSTYYNPSLKSRVTISVDTSKNQFSLKLSSVTAADTAVYYCARVRLLGGGFDIWGQGTTVTVSS
VL: B8 VL with S31T, A51T, N53I
notes: as for B1
B10: Humanized antibody FS002-C58 (antibody, human IgG1, kappa, V domains shown)
VH: EVQLLESGGGVVQPGRSLRLSCAASGFTFSSYAMHWVRQAPGKGLEWVAVISYDGSNKYYADSVKGRFTISRDNSKNTLYLQMNSLRAEDTAVYYCARGKYNWFDPWGQGTLVTVSS
VL: B8 VL with S30Y, Y32S, R45K, I58V, V85L, Q90H, S92Q, N93H
notes: as for B1
B11: Humanized antibody FS002-C417 (antibody, human IgG1, kappa, V domains shown)
VH: EVQLVESGGVVVQPGGSLRLSCAASGFTFDDYTMHWVRQAPGKGLEWVSLISWDGGSTYYADSVKGRFTISRDNAKNTLYLQMNSLRAEDTAVYYCARDTGYAMDVWGQGTMVTVSS
VL: NIQMTQSPSSLSASVGDRVTITCRASQSISSYLNWYQQKPGKAPKLLIYAASSLQSGVPSRFSGSGSGTDFTLTISSLQPEDFASYYCQQSYSSWAFGQGTKVEIKR
notes: as for B1
B12: Humanized antibody FS002-C241 (antibody, human IgG1, lambda, V domains shown)
VH: RLQLQESGPGLVKPSETLSLTCTVSGGSISSSSYYWGWIRQPPGKGLEWIGSIYYSGSTYYNPSLKSRVTISVDTSKNQFSLKLSSVTAADTAVYYCARRYSYGRDAFDIWGQGTMVTVSS
VL: QSALTQPASVSGSPGQSITISCSGTSSDIGRYNYVSWYQQHPGKAPKLLIFDVSNRPSGVSNRFSGSKSGNTASLTISGLQAEDEADYYCSSYTSTVPYVFGTGTRVAVQG
notes: IgG1 heavy chain, lambda light chain
B13: Humanized antibody FS002-C153 (antibody, human IgG1, lambda, V domains shown)
VH: QVQLQQWGAELVKPGASVKLSCTASGFNIKDTYMHWVKQRPEQGLEWIGRIDPANGNTKYDPKFQGKATITADTSSNTAYLQLSSLTSEDTAVYYCARSYYRYDGYFDVWGAGTMVTVSS
VL: QSALTQPASVSGSPGQSITISCTGTSSDVGGYNYVSWYQQHPGKAPKLMIYDVSNRPSGVSNRFSGSKSGNTASLTISGLQAEDEADYYCSSFTTITTRVFGGGTKLTVLG
notes: as for B12
B14: Humanized antibody FS002-C15 (antibody, human IgG1, kappa, V domains shown)
VH: QLQLQESGPGLVKPSETLSLTCTVSGGSISSSSYYWGWIRQPPGKGLEWIGSIYYSGSTYYNPSLKSRVTISVDTSKNQFSLKLSSVTAADTAVYYCARLTIFGVVLYWGQGTLVTVSS
VL: EIVLTQSPATLSLSPGERATLSCQASQTFSDYLAWYQQKPGQAPRLLIYDASTRATGIPARFSGSGSGTDFTLTISSLEPEDFAVYYCQQRSHWPPGYTFGQGTRVEIKR
notes: as for B1

biological target: T1, ITGA2 protein on the surface of human …; experiment: flow cytometry on HuCCT1 cells, goat anti-human IgG (H+L) secondary antibody

| EC50 [nM] | Binder |
| --- | --- |
| 2.07 | B1 |
| 0.927 | B2 |
| 0.793 | B3 |
| 0.653 | B4 |
| 1.13 | B5 |
| 34.6 | B6 |
| 0.987 | B7 |
| 2.17 | B8 |
| 0.793 | B9 |
| 9.48 | B10 |
| 68.4 | B11 |
| 2.41 | B12 |
| 3.63 | B13 |
| 2.13 | B14 |

biological target: T2, ITGA2-His; experiment: ELISA, plate coated with 2 ug/mL ITGA2-His, anti-human IgG-Fc-HRP detection

| EC50 [nM] | Binder |
| --- | --- |
| 0.103 | B1 |
| 0.028 | B2 |
| 0.023 | B3 |
| 0.029 | B4 |
| 0.021 | B5 |
| 12.1 | B6 |
| 0.073 | B7 |
| 0.073 | B8 |
| 0.022 | B9 |
| 0.279 | B10 |
| 0.156 | B11 |
| 0.116 | B12 |
| 0.087 | B13 |
| 0.044 | B14 |
